Assay results: US20260167699A1 (Chugai, published 2026)
Values belong to the binder of their own block, whether it stands above or below them.

Assays:
Experiment in all cases: SPR, relative to GpH7-A5/GpH7-B3/GpL16-k0 =100
FcγRIIa(R) = target: T1, FcγRIIa(R) (human, UniProt P12318 34-217)
T1 construct: extracellular domain; also called 2aR
T1 sequence: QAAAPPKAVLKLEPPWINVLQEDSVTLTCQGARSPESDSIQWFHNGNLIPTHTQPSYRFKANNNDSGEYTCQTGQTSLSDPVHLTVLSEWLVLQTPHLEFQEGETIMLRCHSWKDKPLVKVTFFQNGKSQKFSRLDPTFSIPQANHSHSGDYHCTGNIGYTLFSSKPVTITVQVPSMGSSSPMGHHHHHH

FcγRIIa(H) = target: T2, FcγRIIa(H) (human, UniProt P12318 34-217)
T2 construct: extracellular domain; also called 2aH
T2 sequence: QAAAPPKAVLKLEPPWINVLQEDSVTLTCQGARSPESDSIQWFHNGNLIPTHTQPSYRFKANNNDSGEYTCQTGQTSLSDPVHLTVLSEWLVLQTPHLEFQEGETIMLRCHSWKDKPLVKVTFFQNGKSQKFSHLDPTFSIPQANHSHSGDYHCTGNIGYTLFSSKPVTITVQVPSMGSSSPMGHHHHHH

FcγRIa = target: T3, FcγRIa (human, UniProt P12314 16-292)
T3 construct: extracellular domain; also called 1a
T3 sequence (P12314 other isoform, or with tags, fused parts or gaps): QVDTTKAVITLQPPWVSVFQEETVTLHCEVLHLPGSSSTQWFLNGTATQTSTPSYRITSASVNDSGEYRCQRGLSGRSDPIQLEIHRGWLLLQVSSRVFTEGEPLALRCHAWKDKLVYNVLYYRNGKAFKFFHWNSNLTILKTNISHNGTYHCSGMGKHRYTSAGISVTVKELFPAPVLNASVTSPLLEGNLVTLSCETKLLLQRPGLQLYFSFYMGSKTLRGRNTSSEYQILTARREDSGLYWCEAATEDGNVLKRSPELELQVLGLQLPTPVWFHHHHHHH

FcγRIIb = target: T4, FcγRIIb (human, UniProt P31994 43-217)
T4 construct: extracellular domain; also called 2b
T4 sequence: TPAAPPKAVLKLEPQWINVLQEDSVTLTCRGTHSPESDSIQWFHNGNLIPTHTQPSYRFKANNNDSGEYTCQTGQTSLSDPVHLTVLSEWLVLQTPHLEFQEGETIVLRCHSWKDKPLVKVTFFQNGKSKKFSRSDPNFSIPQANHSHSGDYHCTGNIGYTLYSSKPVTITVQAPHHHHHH

He/Con 2aR (FcγRIIa(R)): 91%
He/Con 2aH (FcγRIIa(H)): 63.9%
He/Con 1a (FcγRIa): 106%
He/Con 2b (FcγRIIb): 62.2%
B5: GpH7-A5/GpH7-B3 variant S298_11K/GpL16-k0 (antibody, human IgG1, kappa)
heavy 1: not shown
heavy 2: not shown
light: DIVMTQSPLSLPVTPGEPASISCQASESLVHSNRNTYLHWYLQKPGQSPQLLIYKVSNRFSGVPDRFSGSGSGTDFTLKISRVEAEDVGVYYCSQNTHVPPTFGQGTKVEIERTVAAPSVFIFPPSDEQLKSGTASVVCLLNNFYPREAKVQWKVDNALQSGNSQESVTEQDSKDSTYSLSSTLTLSKADYEKHKVYACEVTHQGLSSPVTKSFNRGEC
notes: He Ab: heterodimerized IgG1, one H chain mutated

He/Con 2aR (FcγRIIa(R)): 113%
He/Con 2aH (FcγRIIa(H)): 108%
He/Con 1a (FcγRIa): 97.7%
He/Con 2b (FcγRIIb): 128%
B6: GpH7-A5/GpH7-B3 variant S324_03V/GpL16-k0 (antibody, human IgG1, kappa)
heavy 1: not shown
heavy 2: not shown
light: DIVMTQSPLSLPVTPGEPASISCQASESLVHSNRNTYLHWYLQKPGQSPQLLIYKVSNRFSGVPDRFSGSGSGTDFTLKISRVEAEDVGVYYCSQNTHVPPTFGQGTKVEIERTVAAPSVFIFPPSDEQLKSGTASVVCLLNNFYPREAKVQWKVDNALQSGNSQESVTEQDSKDSTYSLSSTLTLSKADYEKHKVYACEVTHQGLSSPVTKSFNRGEC
notes: as for B5

He/Con 2aR (FcγRIIa(R)): 118%
He/Con 2aH (FcγRIIa(H)): 122%
He/Con 1a (FcγRIa): 104%
He/Con 2b (FcγRIIb): 126%
B8: GpH7-A5/GpH7-B3 variant S324_06M/GpL16-k0 (antibody, human IgG1, kappa)
heavy 1: not shown
heavy 2: not shown
light: DIVMTQSPLSLPVTPGEPASISCQASESLVHSNRNTYLHWYLQKPGQSPQLLIYKVSNRFSGVPDRFSGSGSGTDFTLKISRVEAEDVGVYYCSQNTHVPPTFGQGTKVEIERTVAAPSVFIFPPSDEQLKSGTASVVCLLNNFYPREAKVQWKVDNALQSGNSQESVTEQDSKDSTYSLSSTLTLSKADYEKHKVYACEVTHQGLSSPVTKSFNRGEC
notes: as for B5

He/Con 2aR (FcγRIIa(R)): 109%
He/Con 2aH (FcγRIIa(H)): 107%
He/Con 1a (FcγRIa): 96.2%
He/Con 2b (FcγRIIb): 125%
B9: GpH7-A5/GpH7-B3 variant S324_07I/GpL16-k0 (antibody, human IgG1, kappa)
heavy 1: not shown
heavy 2: not shown
light: DIVMTQSPLSLPVTPGEPASISCQASESLVHSNRNTYLHWYLQKPGQSPQLLIYKVSNRFSGVPDRFSGSGSGTDFTLKISRVEAEDVGVYYCSQNTHVPPTFGQGTKVEIERTVAAPSVFIFPPSDEQLKSGTASVVCLLNNFYPREAKVQWKVDNALQSGNSQESVTEQDSKDSTYSLSSTLTLSKADYEKHKVYACEVTHQGLSSPVTKSFNRGEC
notes: as for B5

He/Con 2aR (FcγRIIa(R)): 94.2%
He/Con 2aH (FcγRIIa(H)): 96.2%
He/Con 1a (FcγRIa): 104%
He/Con 2b (FcγRIIb): 79%
B10: GpH7-A5/GpH7-B3 variant S298_14T/GpL16-k0 (antibody, human IgG1, kappa)
heavy 1: not shown
heavy 2: not shown
light: DIVMTQSPLSLPVTPGEPASISCQASESLVHSNRNTYLHWYLQKPGQSPQLLIYKVSNRFSGVPDRFSGSGSGTDFTLKISRVEAEDVGVYYCSQNTHVPPTFGQGTKVEIERTVAAPSVFIFPPSDEQLKSGTASVVCLLNNFYPREAKVQWKVDNALQSGNSQESVTEQDSKDSTYSLSSTLTLSKADYEKHKVYACEVTHQGLSSPVTKSFNRGEC
notes: as for B5

He/Con 2aR (FcγRIIa(R)): 84.7%
He/Con 2aH (FcγRIIa(H)): 80.2%
He/Con 1a (FcγRIa): 105%
He/Con 2b (FcγRIIb): 64.4%
B12: GpH7-A5/GpH7-B3 variant S298_16H/GpL16-k0 (antibody, human IgG1, kappa)
heavy 1: not shown
heavy 2: not shown
light: DIVMTQSPLSLPVTPGEPASISCQASESLVHSNRNTYLHWYLQKPGQSPQLLIYKVSNRFSGVPDRFSGSGSGTDFTLKISRVEAEDVGVYYCSQNTHVPPTFGQGTKVEIERTVAAPSVFIFPPSDEQLKSGTASVVCLLNNFYPREAKVQWKVDNALQSGNSQESVTEQDSKDSTYSLSSTLTLSKADYEKHKVYACEVTHQGLSSPVTKSFNRGEC
notes: as for B5

He/Con 2aR (FcγRIIa(R)): 100%
He/Con 2aH (FcγRIIa(H)): 83%
He/Con 1a (FcγRIa): 104%
He/Con 2b (FcγRIIb): 110%
B14: GpH7-A5/GpH7-B3 variant S298_08L/GpL16-k0 (antibody, human IgG1, kappa)
heavy 1: not shown
heavy 2: not shown
light: DIVMTQSPLSLPVTPGEPASISCQASESLVHSNRNTYLHWYLQKPGQSPQLLIYKVSNRFSGVPDRFSGSGSGTDFTLKISRVEAEDVGVYYCSQNTHVPPTFGQGTKVEIERTVAAPSVFIFPPSDEQLKSGTASVVCLLNNFYPREAKVQWKVDNALQSGNSQESVTEQDSKDSTYSLSSTLTLSKADYEKHKVYACEVTHQGLSSPVTKSFNRGEC
notes: as for B5

More lines, now with the values behind:

B1: GpH7-A5/GpH7-B3 variant S298_06M/GpL16-k0 (antibody, human IgG1, kappa)
heavy 1: not shown
heavy 2: not shown
light: DIVMTQSPLSLPVTPGEPASISCQASESLVHSNRNTYLHWYLQKPGQSPQLLIYKVSNRFSGVPDRFSGSGSGTDFTLKISRVEAEDVGVYYCSQNTHVPPTFGQGTKVEIERTVAAPSVFIFPPSDEQLKSGTASVVCLLNNFYPREAKVQWKVDNALQSGNSQESVTEQDSKDSTYSLSSTLTLSKADYEKHKVYACEVTHQGLSSPVTKSFNRGEC
notes: as for B5
He/Con 2aR (FcγRIIa(R)): 104%
He/Con 2aH (FcγRIIa(H)): 95.8%
He/Con 1a (FcγRIa): 111%
He/Con 2b (FcγRIIb): 103%

B2: GpH7-A5/GpH7-B3 variant S324_04F/GpL16-k0 (antibody, human IgG1, kappa)
heavy 1: not shown
heavy 2: not shown
light: DIVMTQSPLSLPVTPGEPASISCQASESLVHSNRNTYLHWYLQKPGQSPQLLIYKVSNRFSGVPDRFSGSGSGTDFTLKISRVEAEDVGVYYCSQNTHVPPTFGQGTKVEIERTVAAPSVFIFPPSDEQLKSGTASVVCLLNNFYPREAKVQWKVDNALQSGNSQESVTEQDSKDSTYSLSSTLTLSKADYEKHKVYACEVTHQGLSSPVTKSFNRGEC
notes: as for B5
He/Con 2aR (FcγRIIa(R)): 99.6%
He/Con 2aH (FcγRIIa(H)): 106%
He/Con 1a (FcγRIa): 103%
He/Con 2b (FcγRIIb): 99.9%

B3: GpH7-A5/GpH7-B3 variant S324_02A/GpL16-k0 (antibody, human IgG1, kappa)
heavy 1: not shown
heavy 2: not shown
light: DIVMTQSPLSLPVTPGEPASISCQASESLVHSNRNTYLHWYLQKPGQSPQLLIYKVSNRFSGVPDRFSGSGSGTDFTLKISRVEAEDVGVYYCSQNTHVPPTFGQGTKVEIERTVAAPSVFIFPPSDEQLKSGTASVVCLLNNFYPREAKVQWKVDNALQSGNSQESVTEQDSKDSTYSLSSTLTLSKADYEKHKVYACEVTHQGLSSPVTKSFNRGEC
notes: as for B5
He/Con 2aR (FcγRIIa(R)): 99.9%
He/Con 2aH (FcγRIIa(H)): 114%
He/Con 1a (FcγRIa): 96.9%
He/Con 2b (FcγRIIb): 102%

B4: GpH7-A5/GpH7-B3 variant S298_15Y/GpL16-k0 (antibody, human IgG1, kappa)
heavy 1: not shown
heavy 2: not shown
light: DIVMTQSPLSLPVTPGEPASISCQASESLVHSNRNTYLHWYLQKPGQSPQLLIYKVSNRFSGVPDRFSGSGSGTDFTLKISRVEAEDVGVYYCSQNTHVPPTFGQGTKVEIERTVAAPSVFIFPPSDEQLKSGTASVVCLLNNFYPREAKVQWKVDNALQSGNSQESVTEQDSKDSTYSLSSTLTLSKADYEKHKVYACEVTHQGLSSPVTKSFNRGEC
notes: as for B5
He/Con 2aR (FcγRIIa(R)): 75.7%
He/Con 2aH (FcγRIIa(H)): 71.2%
He/Con 1a (FcγRIa): 104%
He/Con 2b (FcγRIIb): 62.2%

B7: GpH7-A5/GpH7-B3 variant S324_01G/GpL16-k0 (antibody, human IgG1, kappa)
heavy 1: not shown
heavy 2: not shown
light: DIVMTQSPLSLPVTPGEPASISCQASESLVHSNRNTYLHWYLQKPGQSPQLLIYKVSNRFSGVPDRFSGSGSGTDFTLKISRVEAEDVGVYYCSQNTHVPPTFGQGTKVEIERTVAAPSVFIFPPSDEQLKSGTASVVCLLNNFYPREAKVQWKVDNALQSGNSQESVTEQDSKDSTYSLSSTLTLSKADYEKHKVYACEVTHQGLSSPVTKSFNRGEC
notes: as for B5
He/Con 2aR (FcγRIIa(R)): 94.4%
He/Con 2aH (FcγRIIa(H)): 110%
He/Con 1a (FcγRIa): 93.2%
He/Con 2b (FcγRIIb): 106%

B11: GpH7-A5/GpH7-B3 variant S298_12R/GpL16-k0 (antibody, human IgG1, kappa)
heavy 1: not shown
heavy 2: not shown
light: DIVMTQSPLSLPVTPGEPASISCQASESLVHSNRNTYLHWYLQKPGQSPQLLIYKVSNRFSGVPDRFSGSGSGTDFTLKISRVEAEDVGVYYCSQNTHVPPTFGQGTKVEIERTVAAPSVFIFPPSDEQLKSGTASVVCLLNNFYPREAKVQWKVDNALQSGNSQESVTEQDSKDSTYSLSSTLTLSKADYEKHKVYACEVTHQGLSSPVTKSFNRGEC
notes: as for B5
He/Con 2aR (FcγRIIa(R)): 81.6%
He/Con 2aH (FcγRIIa(H)): 67.4%
He/Con 1a (FcγRIa): 106%
He/Con 2b (FcγRIIb): 58.6%

B13: GpH7-A5/GpH7-B3 variant S298_19Q/GpL16-k0 (antibody, human IgG1, kappa)
heavy 1: not shown
heavy 2: not shown
light: DIVMTQSPLSLPVTPGEPASISCQASESLVHSNRNTYLHWYLQKPGQSPQLLIYKVSNRFSGVPDRFSGSGSGTDFTLKISRVEAEDVGVYYCSQNTHVPPTFGQGTKVEIERTVAAPSVFIFPPSDEQLKSGTASVVCLLNNFYPREAKVQWKVDNALQSGNSQESVTEQDSKDSTYSLSSTLTLSKADYEKHKVYACEVTHQGLSSPVTKSFNRGEC
notes: as for B5
He/Con 2aR (FcγRIIa(R)): 90.9%
He/Con 2aH (FcγRIIa(H)): 88.9%
He/Con 1a (FcγRIa): 106%
He/Con 2b (FcγRIIb): 74.3%

B15: GpH7-A5/GpH7-B3 variant S298_07I/GpL16-k0 (antibody, human IgG1, kappa)
heavy 1: not shown
heavy 2: not shown
light: DIVMTQSPLSLPVTPGEPASISCQASESLVHSNRNTYLHWYLQKPGQSPQLLIYKVSNRFSGVPDRFSGSGSGTDFTLKISRVEAEDVGVYYCSQNTHVPPTFGQGTKVEIERTVAAPSVFIFPPSDEQLKSGTASVVCLLNNFYPREAKVQWKVDNALQSGNSQESVTEQDSKDSTYSLSSTLTLSKADYEKHKVYACEVTHQGLSSPVTKSFNRGEC
notes: as for B5
He/Con 2aR (FcγRIIa(R)): 86.2%
He/Con 2aH (FcγRIIa(H)): 84.9%
He/Con 1a (FcγRIa): 104%
He/Con 2b (FcγRIIb): 71.5%
